Substrate: C[C@@H]1CC=N[C@H]1C(=O)NCCCC[C@H](N)C(=O)O
Assay: purified protein, by the assay type
Settings: other: 37° C., pH 7.2
Experimental: The pyrophosphate exchange reaction was essentially performed following the method of Cole and Schimmel. All reactions were performed in duplicate at 37° C. The 100 to 200 μl reactions contained (unless noted) 0.3 to 1 HM PylSHis6. […] The specific activity of the radiolabel was adjusted from 4 to 10 dpm/pmol). The concentration of protein was 0.3 to 1 μM. At specific times, 25 μl aliquots were removed and quenched in 500 μl of a stop solution containing 1.6% (w/v) activated acid-washed charcoal (Sigma Chemical Co., St. Louis, Mo.), 80 mM sodium tetrapyrophosphate, and 3.5% (v/v) perchloric acid. Samples were filtered through Whatman GF/C glass-fiber filters and then the filter was washed three times with 5 ml of 40 mM sodium tetrasodium pyrophosphate solution containing 1.7% perchloric acid (v/v) and once with 5 ml 100% ethanol. Filters were dried at 80° C. for 5 minutes then placed in 20 ml scintillation vials containing 10 ml of Ultima Gold F scintillation cocktail (PerkinElmer), shaken once, and counted in a liquid scintillation analyzer. Identical reactions without amino acid, ATP, or enzyme were also set up as negative controls in duplicate.

B1: PylS-His6 (Methanosarcina barkeri) (protein)
chain: MDKKPLDVLISATGLWMSRTGTLHKIKHHEVSRSKIYIEMACGDHLVVNNSRSCRTARAFRHHKYRKTCKRCRVSDEDINNFLTRSTESKNSVKVRVVSAPKVKKAMPKSVSRAPKPLENSVSAKASTNTSRSVPSPAKSTPNSSVPASAPAPSLTRSQLDRVEALLSPEDKISLNMAKPFRELEPELVTRRKNDFQRLYTNDREDYLGKLERDITKFFVDRGFLEIKSPILIPAEYVERMGINNDTELSKQIFRVDKNLCLRPMLAPTLYNYLRKLDRILPGPIKIFEVGPCYRKESDGKEHLEEFTMVNFCQMGSGCTRENLEALIKEFLDYLEIDFEIVGDSCMVYGDTLDIMHGDLELSSAVVGPVSLDREWGIDKPWIGAGFGLERLLKVMHGFKNIKRASRSESYYNGISTNL
Km: 53 µM | kcat: 0.1 s⁻¹

Reference: patent US20060183888A1
